The RNAGym collection of RNA variant scans (doi:10.7554/elife.90254)

B1: LINE1-mini (parent)
chain: GGCAGAGCUCAACACAGCGUGGCAAAGUGGCUGUGGCUAGACUGCC

Variants of: B1
Assay: self-cleavage, relative activity (ratio to wild type); higher = more cleavage; in vitro, sequencing; the parent is a self-cleaving ribozyme

Variant	self-cleavage
U20A A41U	0.35
G17U G30C	0.59
A4U A14U	0.1
C42G G44U	0.06
C10A C31A	0.03
G44A	0.44
G40C C42U	0.07
G27C G36C	0.09
G7C C13G	0.18
G22U U38C	2.12
C42U C45U	0.26
C8A G36U	0.22
C8A G36C	0.29
A25C A41C	0.04
A6C G30C	0.2
U34A C37U	0.04
C37A C46U	0.04
G5U C8U	0.26
A16G G35C	0.04
A16G C31U	0.03
G5C G35U	0.07
G30U A39U	0.87
A12C U32C	0.05
U9C A16U	0.04

Variant	self-cleavage
C15A G44U	0.04
A4C G27U	0.07
A25U G33C	0.04
A4G A16C	0.12
G1C G44A	0.06
G21U G33A	0.26
A41C C45U	0.1
C13U G44C	0.06
G19C C31G	1.26
G2A A39C	0.54
A14G G33U	0.16
G2A G30A	1.67
A14U A26C	0.6
U38C A39C	0.1
C3A A41C	0.15
A12G G40C	0.1
A14C C37G	0.11
G17A A25G	0.07
G1A G17A	0.15
C13G G19U	0.11
G29U C31U	0.19
G19U	0.77
A11C G30A	0.08
G5A C15A	0.1

Variant	self-cleavage
G22C U34A	0.09
G22C U34C	0.17
C31U C42G	0.04
C3G	0.48
C3U	0.48
G27C A41U	0.25
G27C A41G	0.25
A11C A39C	0.02
G5U C31G	0.05
C31G G44A	0.05
C18U U28A	0.86
G35U U38A	0.12
A25U C45G	0.19
G5U A24G	0.19
C8G G40U	0.09
G5C G44A	0.05
C13A A14U	0.12
A14C A39U	0.07
A14C A41G	0.05
C13A A16U	0.09
A4C G5U	0.21
A25C U38C	0.46
G1C A25G	0.01
A24G G27U	0.57

Variant	self-cleavage
C13U A16C	0.1
A12U A25U	0.25
G7C G40C	0.05
C23G A26G	0.76
C23G A26U	1.62
U9A C15A	0.13
A24C G30U	0.79
G1U A39G	0.05
C8G C37A	0.04
G5U G19U	0.1
C18G G40U	0.06
G19C G22C	0.32
C3U U32G	0.09
G21C A41C	0.07
A6U U38A	0.23
U9G U20A	0.07
U20A U43A	0.08
G2A C37A	0.35
G7U A16U	0.12
G2A C13A	0.36
G21C G44U	0.28
C3U A4C	0.26
G17U C45G	0.05
G21A G29A	1

Variant	self-cleavage
A6G C42G	0.04
A25C C31U	0.12
C10A C13U	0.04
G22C U28G	0.43
G29C C37A	0.02
G7A G27A	0.06
G5U U28A	0.06
C15G A41U	0.06
U28G U32G	0.24
U9A G35A	0.15
U9A G35U	0.09
A4U U32C	0.14
G19C G21C	0.27
G17C C31A	0.65
G17C C31G	0.14
C31G C46U	0.07
C31G C46G	0.04
C8G C10A	0.03
U34A G44A	0.06
G22A G40U	0.12
G22A G40A	0.08
C31A A39C	0.05
C31A A39U	0.11
G36U G40C	0.09

Variant	self-cleavage
G33C G35U	0.04
A11U A12U	0.07
G30A C46A	1.15
C23G A39U	0.69
G40A G44A	0.19
C8A G40C	0.22
G22C G30C	1.94
G22C G30A	0.76
C13U G19C	0.07
A16U A24G	0.1
U20C C31U	0.39
A4G C8G	0.11
C3G C13U	0.37
U34C G44C	0.11
G27C C37A	0.06
U34G C45A	0.06
C3A C13A	0.25
A11G G17C	0.04
U9C A41U	0.06
C3G A41G	0.09
C10A U43C	0.03
U32A G33A	0.08
U20C G40A	0.09
A16G U38A	0.4

Variant	self-cleavage
C15G G36C	0.03
C13G C37U	0.37
C13G C37A	0.13
A4U G5U	0.12
A25C G44A	0.42
A24G A41U	0.67
G35C C37G	0.09
A6U G29C	0.34
G7U U34A	0.08
A11G A14G	0.02
A11G C31U	0.02
G29U C37U	0.05
A4U C31U	0.1
G27U C37U	0.07
A11C G22A	0.12
A41C C46G	0.07
C23G G27A	0.95
G29C U43A	0.03
U20C U38G	0.01
G1C A12U	0.06
C3A A6U	0.76
C13A U34G	0.03
C18U G21U	2.05
